# Substitutions are numbered along the chain they refer to. Numbers in names are those of the source.
# B1: Fc (G4S)2 BCMA (356) (Fc fusion)
# chain: EPKSSDKTHTCPPCPAPEAEGAPSVFLFPPKPKDTLMISRTPEVTCVVVDVSHEDPEVKFNWYVDGVEVHNAKTKPREEQYNSTYRVVSVLTVLHQDWLNGKEYKCKVSNKALPAPIEKTISKAKGQPREPQVYTLPPSRDELTKNQVSLTCLVKGFYPSDIAVEWESNGQPENNYKTTPPVLDSDGSFFLYSKLTVDKSRWQQGNVFSCSVMHEALHNHYTQKSLSLSPGGGGGSGGGGSLQMAGQCSQNEYFDSLLHACIPCQLRCSSNTPPLTCQRYCNASVTNSVKGTNA
# B2: Fc (G4S)2 BCMA (357) (Fc fusion)
# chain: B1 chain with H259Y
# B3: CTLA-4 113 GSG4S Fc (G4S)4 TACI 535 (68-110) (Fc fusion)
# chain: KAMHVAQPAVVFASSHGIASFVCEYASPWKATEVRVTVLRQADSQVTEVCAATYMTGNELTFLDDSICTGTSSGNQVNLTIQGLRAMDTGLYICKVEQMYPPPYLLGIGNGTQIYVIDPEPCPDSDGSGGGGSEPKSSDKTHTCPPCPAPEAEGAPSVFLFPPKPKDTLMISRTPEVTCVVVDVSHEDPEVKFNWYVDGVEVHNAKTKPREEQYNSTYRVVSVLTVLHQDWLNGKEYKCKVSNKALPAPIEKTISKAKGQPREPQVYTLPPSRDELTKNQVSLTCLVKGFYPSDIAVEWESNGQPENNYKTTPPVLDSDGSFFLYSKLTVDKSRWQQGNVFSCSVMHEALHNHYTQKSLSLSPGGGGGSGGGGSGGGGSGGGGSSLSCRKEQGKFYDHLLGDCISCASICGQHPKQCAYFCENKLRS
# B4: TACI 516 (EAAAK)6 CTLA 4 668 (other)
# chain: VAMRSCPEEQYWDPLLGTCMSCKTICNHQSQRTCAAFCRSLSCRKEQGKFYDHLLRDCISCASICGQHPKQCAYFCENKLRSEAAAKEAAAKEAAAKEAAAKEAAAKEAAAKKAMHVAQPAVVLASSRGIASFVCEYASPGKATEVRVTVLRQADSQVTEVCAATYMMGNELTFLDDSICTGTSSGNQVNLTIQGLRAMDTGLYICKVELMYPPPYYLGIGNGTQIYVIDPEPSPDSDQDYKDDDDKHHHHHH
# B5: CTLA-4 165 GSG4S Fc (G4S)2 BCMA 356 (Fc fusion)
# chain: KAMHVAQPAVVLASSRGIASFVCEYASPGKATEVRVTVLRQADSQVTEVCAASYMMGNELTFPDDSICTGTSSGNQVNLTIQGLRAMDTGLYICKVEQMYPPPYYLGIGNGTQIYVIDPEPCPDSDGSGGGGSEPKSSDKTHTCPPCPAPEAEGAPSVFLFPPKPKDTLMISRTPEVTCVVVDVSHEDPEVKFNWYVDGVEVHNAKTKPREEQYNSTYRVVSVLTVLHQDWLNGKEYKCKVSNKALPAPIEKTISKAKGQPREPQVYTLPPSRDELTKNQVSLTCLVKGFYPSDIAVEWESNGQPENNYKTTPPVLDSDGSFFLYSKLTVDKSRWQQGNVFSCSVMHEALHNHYTQKSLSLSPGGGGGSGGGGSLQMAGQCSQNEYFDSLLHACIPCQLRCSSNTPPLTCQRYCNASVTNSVKGTNA
# B6: CTLA-4 92 GSG4S Fc (G4S)2 BCMA 356 (Fc fusion)
# chain: B5 chain with G29W, S53T, N58S, Q82R, Y105L
# B7: CTLA-4 165 GSG4S Fc (G4S)2 BCMA 357 (Fc fusion)
# chain: B5 chain with H392Y
# B8: CTLA 4 165 GSG4S Fc (G4S)2 TACI 516 (Fc fusion)
# chain: KAMHVAQPAVVLASSRGIASFVCEYASPGKATEVRVTVLRQADSQVTEVCAASYMMGNELTFPDDSICTGTSSGNQVNLTIQGLRAMDTGLYICKVEQMYPPPYYLGIGNGTQIYVIDPEPCPDSDGSGGGGSEPKSSDKTHTCPPCPAPEAEGAPSVFLFPPKPKDTLMISRTPEVTCVVVDVSHEDPEVKFNWYVDGVEVHNAKTKPREEQYNSTYRVVSVLTVLHQDWLNGKEYKCKVSNKALPAPIEKTISKAKGQPREPQVYTLPPSRDELTKNQVSLTCLVKGFYPSDIAVEWESNGQPENNYKTTPPVLDSDGSFFLYSKLTVDKSRWQQGNVFSCSVMHEALHNHYTQKSLSLSPGGGGGSGGGGSVAMRSCPEEQYWDPLLGTCMSCKTICNHQSQRTCAAFCRSLSCRKEQGKFYDHLLRDCISCASICGQHPKQCAYFCENKLRS
# B9: CTLA 4 92 GSG4S Fc (G4S)2 TACI 516 (Fc fusion)
# chain: B8 chain with G29W, S53T, N58S, Q82R, Y105L
# B10: TACI 516 (G4S)3 CTLA 4 668 (other)
# chain: VAMRSCPEEQYWDPLLGTCMSCKTICNHQSQRTCAAFCRSLSCRKEQGKFYDHLLRDCISCASICGQHPKQCAYFCENKLRSGGGGSGGGGSGGGGSKAMHVAQPAVVLASSRGIASFVCEYASPGKATEVRVTVLRQADSQVTEVCAATYMMGNELTFLDDSICTGTSSGNQVNLTIQGLRAMDTGLYICKVELMYPPPYYLGIGNGTQIYVIDPEPSPDSDQDYKDDDDKHHHHHH
# B11: TACI 528 (EAAAK)6 CTLA 4 668 (other)
# chain: SLSCRKEQGKFYDHLLRDCISCASICGQHPKQCAYFCENKLRSEAAAKEAAAKEAAAKEAAAKEAAAKEAAAKKAMHVAQPAVVLASSRGIASFVCEYASPGKATEVRVTVLRQADSQVTEVCAATYMMGNELTFLDDSICTGTSSGNQVNLTIQGLRAMDTGLYICKVELMYPPPYYLGIGNGTQIYVIDPEPSPDSDQDYKDDDDKHHHHHH
# B12: TACI 528 (G4S)3 CTLA 4 668 (other)
# chain: SLSCRKEQGKFYDHLLRDCISCASICGQHPKQCAYFCENKLRSGGGGSGGGGSGGGGSKAMHVAQPAVVLASSRGIASFVCEYASPGKATEVRVTVLRQADSQVTEVCAATYMMGNELTFLDDSICTGTSSGNQVNLTIQGLRAMDTGLYICKVELMYPPPYYLGIGNGTQIYVIDPEPSPDSDQDYKDDDDKHHHHHH
# Target: T1, recombinant human APRIL (human, UniProt O75888 105-250, limits assumed)
# T1 sequence (looked up): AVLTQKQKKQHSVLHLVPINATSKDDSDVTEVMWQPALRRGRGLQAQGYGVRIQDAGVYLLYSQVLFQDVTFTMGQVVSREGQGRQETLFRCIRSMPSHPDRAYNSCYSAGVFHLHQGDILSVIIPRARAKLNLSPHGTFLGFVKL
# Assay: cell-based or functional assay
Binder,IC50 (nM) APRIL [nM],IC50 APRIL (Δ Parental vTD) [ratio]
B1,42.7,1
B2,0.696,1
B3,8.63,
B4,138,15
B5,0.894,0
B6,0.809,0
B7,0.606,0.9
B8,4.64,0.9
B9,6.75,1.3

# Target: recombinant human BAFF (human, UniProt Q9Y275 134-285)
# Assay: cell-based or functional assay
Binder,IC50 (nM) BAFF [nM],IC50 BAFF (Δ Parental vTD) [ratio]
B1,42.7,1
B2,5.44,1
B3,0.506,0.4
B4,3.42,1.3
B10,8.75,3.4
B5,36.8,0.9
B6,33.5,0.8
B7,11.8,2.2
B11,5.18,2
B8,0.928,0.5
B9,1.73,1
B12,8.41,3.3

# — patent publication US20230241168A1 (ALPINE IMMUNE SCIENCES, published 2023)
